The values below come from paper PMC4585913, “Crystal structure of Streptococcus pneumoniae pneumolysin provides key insights into early steps of pore formation” (Scientific Reports, 2015).

This series deals with the molecule itself. Put plainly: crystal structure; PLY 10.5 mg/ml co-crystallised with 5 mM KAu(CN)2 in 10% PEG 8000, 10% glycerol, 10% ethylene glycol, 100 mM HEPES pH 7.5; space group P212121, one molecule in the asymmetric unit; linear oligomer formed by crystal packing; 2.9 A.

B1: Pneumolysin (Hexahis-PLY, wild type) (natural protein, Streptococcus pneumoniae)
chain: ANKAVNDFILAMNYDKKKLLTHQGESIENRFIKEGNQLPDEFVVIERKKRSLSTNTSDISVTATNDSRLYPGALLVVDETLLENNPTLLAVDRAPMTYSIDLPGLASSDSFLQVEDPSNSSVRGAVNDLLAKWHQDYGQVNNVPARMQYEKITAHSMEQLKVKFGSDFEKTGNSLDIDFNSVHSGEKQIQIVNFKQIYYTVSVDAVKNPGDVFQDTVTVEDLKQRGISAERPLVYISSVAYGRQVYLKLETTSKSDEVEAAFEALIKGVKVAPQTEWKQILDNTEVKAVILGGDPSSGARVVTGKVDMVEDLIQEGSRFTADHPGLPISYTTSFLRDNVVATFQNSTDYVETKVTAYRNGDLLLDHSGAYVAQYYITWNELSYDHQGKEVLTPKAWDRNGQDLTAHFTTSIPLKGNVRNLSVKIRECTGLAWEWWRTVYEKTDLPLVRKRTISIWGTTLYPQVEDKVEN
notes: Pneumolysin (PLY) of Streptococcus pneumoniae, wild type, cloned into pQE-30; the domains described span residues 1 to 470; The crystals run on SDS-AGE were grown without gold; Three residues of the His tag/linker are visible at the N-terminus of the model; It is written here as m1; also called native PLY; not shown: His6, N-terminal, kept
As to B1, the binding result is given as “binds”.
